In the supplement of paper PMC12855868:

B1: library; numbered along this chain (parent)
chain: MAAAGGARLLRAASAVLGGPAGRWLHHAGSRAGSSGLLRNRGPGGSAEASRSLSVSARARSSSEDKITVHFINRDGETLTTKGKVGDSLLDVVVENNLDIDGFGACEGTLACSTCHLIFEDHIYEKLDAITDEENDMLDLAYGLTDRSRLGCQICLTKSMDNMTVRVPETVADARQSIDVGKTS

Variants of: B1
Assay: scaled log2 fold change in cell abundance, elesclomol vs control (0 = silent mean, 1 = nonsense mean) (scaled log2 ratio); higher = higher viability under elesclomol (loss of FDX1 cuproptosis function)
Details: glucose 10 mM
Method: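 Deep mutational scan of full-length human FDX1: a pooled saturation-mutagenesis ORF library (every residue 2-184 mutated to all 19 amino acids plus stop, and silent codons where available) was expressed by lentivirus in FDX1-knockout ABC1 (14 days) or HEK293T (11 days) cells grown with elesclomol (ES) or DMSO control. Variant abundance came from ORF sequencing. The log2 fold change (ES vs control, mean of duplicates) was centred on the silent-variant mean (0) and scaled to the nonsense-variant mean (1). Higher values mean greater viability under ES, i.e. loss of FDX1 function in cuproptosis.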

[1] = with ABC1 FDX1 KO, elesclomol 5 nM, 14 days
[2] = with HEK293T FDX1 KO, elesclomol 40 nM, 11 days
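Also: variant abundance is its share of total variant reads in each endpoint sample, from next-generation sequencing of the integrated ORF PCR-amplified out of genomic DNA.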

Variant	scaled log2 fold change [1]	scaled log2 fold change [2]
P20S	-0.324	–
P20D	-0.0903	–
P20A	-0.601	0.0404
P20Q	-0.5	1.13
P20Y	0.0978	0.987
P20I	0.419	0.171
P20F	-0.201	–
P20E	0.162	1.08
P20M	-0.56	–
P20C	0.163	-0.287
P20G	0.37	–
P20N	-0.129	–
P20W	-0.19	-0.657
P20H	-0.216	0.0304
P20K	0.251	–
P20L	0.585	-0.772
G29E	0.324	0.361
G29R	-0.244	-0.0867
G29P	-0.415	-0.6
G29T	-0.284	-0.357
G29Y	-0.628	–
G29W	0.42	0.76

Variant	scaled log2 fold change [1]	scaled log2 fold change [2]
G29C	0.0521	-0.731
G29V	-0.87	–
G29F	-0.118	-0.149
G29D	0.238	–
G29K	-0.417	1.26
G29I	0.147	-1.13
G29S	0.00542	-0.441
G29M	-0.124	-0.568
L25Q	-0.0213	-1.08
L25R	0.126	0.222
L25K	0.14	1.29
L25H	0.124	-0.423
L25A	-0.505	–
L25W	0.28	0.019
L25P	0.318	1.23
L25Y	0.423	0.926
L25C	0.238	0.0546
L25S	0.221	–
L25E	-0.135	-0.0782
L25T	0.536	–
L25D	-0.703	–
L25M	0.607	1.17

Variant	scaled log2 fold change [1]	scaled log2 fold change [2]
L25V	0.553	–
L25G	-0.623	–
L25N	-0.498	–
A21T	-0.223	-0.058
A21R	-0.644	-0.0217
A21K	-0.827	–
A21S	0.463	-0.189
A21D	0.168	-0.0523
A21V	0.197	–
A21P	0.0803	–
A21N	-0.1	-0.618
A21C	-0.145	-0.0664
A21H	-0.455	-0.00969
A21E	-0.0483	-0.444
A21L	0.235	0.118
A21M	-0.216	-0.139
A21Q	-0.931	0.318
A21G	0.106	-0.283
A21Y	-0.187	–
A21I	0.0825	0.0632
A21F	-0.268	0.113
